According to patent US20180051081A1 (published 2018):
Residue numbers refer to the chain shown, from its start.

T1: dog CD47 (dog, UniProt A0A8I3PM61 19-310)
T1 construct: also called CD47 on dog RBCs
T1 sequence: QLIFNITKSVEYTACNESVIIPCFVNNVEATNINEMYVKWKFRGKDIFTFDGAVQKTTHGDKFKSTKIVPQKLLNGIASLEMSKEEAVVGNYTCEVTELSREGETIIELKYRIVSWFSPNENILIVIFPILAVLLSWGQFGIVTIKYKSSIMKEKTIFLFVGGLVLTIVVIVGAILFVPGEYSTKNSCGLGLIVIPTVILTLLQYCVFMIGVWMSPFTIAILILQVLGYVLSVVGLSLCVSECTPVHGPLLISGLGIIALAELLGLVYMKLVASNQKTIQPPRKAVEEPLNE

T2: rat CD47 (rat, UniProt P97829 19-303)
T2 construct: whole, on cells; also called CD47 on rat RBCs
T2 sequence (looked up): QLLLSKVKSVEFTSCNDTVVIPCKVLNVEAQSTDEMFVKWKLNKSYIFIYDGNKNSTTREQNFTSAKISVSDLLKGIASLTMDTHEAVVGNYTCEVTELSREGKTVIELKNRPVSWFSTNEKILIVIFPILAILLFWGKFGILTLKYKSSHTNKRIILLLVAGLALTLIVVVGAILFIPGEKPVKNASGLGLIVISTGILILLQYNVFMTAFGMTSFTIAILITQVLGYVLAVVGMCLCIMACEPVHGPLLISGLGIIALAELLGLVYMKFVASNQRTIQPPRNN

T3: mouse CD47 (mouse, UniProt Q61735 19-303)
T3 construct: whole, on cells; also called CD47 on mouse RBCs; CD47 on 4T1 cells
T3 sequence (looked up): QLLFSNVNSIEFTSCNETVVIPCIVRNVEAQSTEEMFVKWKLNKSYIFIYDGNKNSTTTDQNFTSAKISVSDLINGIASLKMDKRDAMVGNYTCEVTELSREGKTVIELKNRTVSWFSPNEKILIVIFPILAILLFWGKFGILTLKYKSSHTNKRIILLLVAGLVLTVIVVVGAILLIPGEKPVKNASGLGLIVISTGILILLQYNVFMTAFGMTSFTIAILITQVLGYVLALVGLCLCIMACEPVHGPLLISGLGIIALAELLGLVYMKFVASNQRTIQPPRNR

T4: pig CD47 (pig, UniProt Q9GKE8 19-303)
T4 construct: whole, on cells; also called CD47 on porcine RBCs
T4 sequence (looked up): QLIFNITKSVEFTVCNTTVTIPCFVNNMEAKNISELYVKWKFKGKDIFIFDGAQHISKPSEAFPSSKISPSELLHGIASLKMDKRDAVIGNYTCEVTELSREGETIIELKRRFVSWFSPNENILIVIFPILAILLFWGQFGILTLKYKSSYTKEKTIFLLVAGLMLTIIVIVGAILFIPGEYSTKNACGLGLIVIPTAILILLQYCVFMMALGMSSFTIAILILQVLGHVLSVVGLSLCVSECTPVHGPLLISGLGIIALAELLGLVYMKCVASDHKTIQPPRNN

B1: Clone 24 (pVxK7b-037-hum24-LC / pVxK7b-037-hum24-HC) (antibody, human IgG1, kappa, V domains shown)
VH: QVQLQESGPGLVKPGATVKISCKVSGYTFTNYYVFWVRQARGQRLEWIGDINPVNGDTNFNEKFKNRVTITADKSTSTAYMELSSLRSEDTAVYYCARGGYTMDYWGQGTLVTVSS
VL: AIQLTQSPSSLSASVGDRVTITCRSSQSLVHSNGNTYLHWYQQKPGQAPRLLIYKVSYRFSGVPSRFSGSGSGTEFTLTISSLQPDDFATYYCSQNTHVPRTFGQGTKVEIKR
notes: also called Cl 24
B2: Clone 4 (pVxK7b-037-hum04-LC / pVxK7b-037-hum04-HC) (antibody, human IgG1, kappa, V domains shown)
VH: QVQLQESGPGLVKPSQTLSLTCTVSGYTFTNYYVFWVRQAPGKGLEWVSDINPVNGDTNFNEKFKNRVTISVDTSKNQFSLKLSSVTAADTAVYYCARGGYTMDYWGQGTLVTVSS
VL: B1 VL with A1D, L4M, Q42L, A48S, R50Q, V63I, S65A, P85S, D86E, T90V
B3: Clone 7 (pVxK7b-037-hum07-LC / pVxK7b-037-hum07-HC) (antibody, human IgG1, kappa, V domains shown)
VH: B1 VH
VL: DIVMTQTPLSLPVTPGEPASISCRSSQSLVHSNGNTYLHWYLQKPGQSPQLLIYKVSYRFSGVPDRFSGSGSGTDFTLKISRVEAEDVGVYYCSQNTHVPRTFGQGTKVEIKR
B4: Clone 12 (pVxK7b-037-hum12-LC / pVxK7b-037-hum12-HC) (antibody, human IgG1, kappa, V domains shown)
VH: B1 VH
VL: B3 VL with L42Q, Q47K, S48A, Q50K
B5: Clone 22 (pVxK7b-037-hum22-LC / pVxK7b-037-hum22-HC) (antibody, human IgG1, kappa, V domains shown)
VH: QVQLQESGPGLVKPSQTLSLTCTVSGYTFTNYYVFWVRQARGQRLEWIGDINPVNGDTNFNEKFKNRLTISKDTSKNQVVLTMTNMDPVDTATYYCARGGYTMDYWGQGTLVTVSS
VL: EIVLTQSPATLSVSPGERATLSCRSSQSLVHSNGNTYLHWYQQKPGQAPRLLIYKVSYRFSGVPSRFSGSGSGTDFTFTISSLEAEDAATYYCSQNTHVPRTFGQGTKVEIKR
B6: Clone 11 (pVxK7b-037-hum11-LC / pVxK7b-037-hum11-HC) (antibody, human IgG1, kappa, V domains shown)
VH: B1 VH
VL: B5 VL
notes: also called Cl 11
B7: Clone 16 (pVxK7b-037-hum16-LC / pVxK7b-037-hum16-HC) (antibody, human IgG1, kappa, V domains shown)
VH: QVQLQESGPGLVKPSQTLSLTCTVSGYTFTNYYVFWVRQARGQRLEWIGDINPVNGDTNFNEKFKNRVTISADKSISTAYLQWSSLKASDTAMYYCARGGYTMDYWGQGTLVTVSS
VL: AIQLTQSPSSLSASVGDRVTITCRSSQSLVHSNGNTYLHWYQQKPGQAPRLLIYKVSYRFSGVPDRFSGSGSGTDFTLKISRVEAEDVGVYYCSQNTHVPRTFGQGTKVEIKR
B8: Clone 23 (pVxK7b-037-hum23-LC / pVxK7b-037-hum23-HC) (antibody, human IgG1, kappa)
light: DIVMTQTPLSLPVTPGEPASISCRSSQSLVHSNGNTYLHWYQQKPGKAPKLLIYKVSYRFSGVPDRFSGSGSGTDFTLKISRVEAEDVGVYYCSQNTHVPRTFGQGTKVEIKRTVAAPSVFIFPPSDEQLKSGTASVVCLLNNFYPREAKVQWKVDNALQSGNSQESVTEQDSKDSTYSLSSTLTLSKADYEKHKVYACEVTHQGLSSPVTKSFNRGEC
heavy: not shown
B9: Clone 8 (pVxK7b-037-hum08-LC / pVxK7b-037-hum08-HC) (antibody, human IgG1, kappa)
light: B8 light
heavy: not shown
B10: Clone 5 (pVxK7b-037-hum05-LC / pVxK7b-037-hum05-HC) (antibody, human IgG1, kappa)
light: B8 light with Q42L, K47Q, A48S, K50Q
heavy: not shown
B11: Clone 10 (pVxK7b-037-hum10-LC / pVxK7b-037-hum10-HC) (antibody, human IgG1, kappa, V domains shown)
VH: B5 VH
VL: B3 VL
B12: Clone 9 (pVxK7b-037-hum09-LC / pVxK7b-037-hum09-HC) (antibody, human IgG1, kappa)
light: B8 light with I2V, T7S, P15L, E17Q
heavy: not shown
notes: also called Cl 9

These binders were tested against T5, human CD47 (human, UniProt Q08722 19-323) (assay: FACS, human RBCs, supernatant 10 ng/ml).
T5 construct: whole, on cells; also called CD47 on human RBCs; CD47 on OV10 cells
T5 sequence (Q08722 19-323): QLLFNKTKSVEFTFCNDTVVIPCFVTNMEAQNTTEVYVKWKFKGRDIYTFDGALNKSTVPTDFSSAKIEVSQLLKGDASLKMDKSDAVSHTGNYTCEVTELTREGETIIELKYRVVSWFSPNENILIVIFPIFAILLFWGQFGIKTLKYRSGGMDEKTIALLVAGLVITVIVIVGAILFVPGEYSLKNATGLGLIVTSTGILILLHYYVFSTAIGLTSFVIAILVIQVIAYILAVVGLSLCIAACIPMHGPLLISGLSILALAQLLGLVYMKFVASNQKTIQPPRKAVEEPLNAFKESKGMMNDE
Description: (§1) RBCs are incubated for 60 minutes on ice with tissue culture supernatants containing the secreted humanized antibodies at a concentration of 10 ng/ml in a solution of phosphate buffered saline, pH 7.2, 2.5 mM EDTA (PBS+E), or with various concentrations of purified antibodies. Cells are then washed with cold PBS+E, and incubated for an additional hour on ice with FITC labeled donkey anti-human antibody (Jackson Immuno Research Labs, West Grove, Pa.; Catalogue #709-096-149) in PBS+E. Cells are then washed with PBS+E, and antibody binding is analyzed using a BD FACSAria Cell Sorter (Becton Dickinson) or a C6 Accuri Flow Cytometer (Becton Dickinson). Antibody binding is quantitated by comparison of mean fluorescence values relative to that of chimeric antibody >VxP037-01LC (SEQ ID NO:7))/>VxP037-01HC (SEQ ID NO:57). The mean fluorescence value for each antibody is divided by the mean fluorescence value for the chimeric antibody.

Binder | mean fluorescence relative to chimera
B1 | 0.8
B2 | 0.6
B3 | 0.5
B4 | 0.8
B5 | 1.1
B6 | 0.8
B7 | 0.9
B8 | 1.2
B9 | 0.7
B10 | 1
B11 | 1.1
B12 | 1.2

The binders below were run against T1, dog CD47 (assay: FACS, dog RBCs, supernatant 10 ng/ml).
Description: as §1

Binder | mean fluorescence relative to chimera
B1 | 1
B2 | 0.6
B3 | 0.8
B4 | 0.9
B5 | 1
B6 | 0.8
B7 | 1.1
B8 | 1.1
B9 | 0.8
B10 | 1.1
B11 | 1.1
B12 | 1

What follows are binders tested against T2, rat CD47 (assay: FACS, rat RBCs, supernatant 10 ng/ml).
Description: as §1

Binder | mean fluorescence relative to chimera
B1 | 1.2
B2 | 1
B3 | 0.8
B4 | 1.3
B5 | 2.8
B6 | 1.2
B7 | 2.1
B8 | 3.3
B9 | 1.2
B10 | 2.2
B11 | 2.9
B12 | 3.7

These binders were tested against T3, mouse CD47 (assay: FACS, mouse RBCs, supernatant 10 ng/ml).
Description: as §1

Binder | mean fluorescence relative to chimera
B1 | 0.7
B2 | 0.6
B3 | 0.4
B4 | 0.6
B5 | 1.2
B6 | 0.7
B7 | 1
B8 | 1.4
B9 | 0.7
B10 | 1
B11 | 1.2
B12 | 1.4

What follows are binders tested against T4, pig CD47 (assay: FACS, pig RBCs, supernatant 10 ng/ml).
Description: as §1

Binder | mean fluorescence relative to chimera
B1 | 1.1
B2 | 0.6
B3 | 0.9
B4 | 1.4
B5 | 1.4
B6 | 1.2
B7 | 1.1
B8 | 1.7
B9 | 0.8
B10 | 1.2
B11 | 1.5
B12 | 1.6
